From US6642353B1, “Peptide ligands for the erythropoietin receptor” (Chugai Seiyaku Kabushiki Kaisha, priority 2000, dated 2003)
Positions of bridges follow the written chain, without caps; N, C: chain ends. Residues, ends and D or L forms follow the SMILES beside them. No end group written: not given here.

How the values were obtained:
[1] = molecular target: T1, chimeric Ig-EPOR protein (Homo sapiens, UniProt P19235); assay: peptide inhibition ELISA (binding of Ig-EPOR to EPO-coated plates); settings: for EPOR binding activity: N-terminal truncations of ERB1-7
T1 construct: a fusion protein having domains corresponding to murine IgG1 and the extracellular domain (ECD) of the human EPOR; made in house; secreted into the medium
Experimental: The wells were washed three times with PBS containing 0.05% (v/v) TWEEN® 20 non-ionic detergent, and then blocked with 1% (w/v) BSA and 0.05% TWEEN® 20 in PBS (blocking buffer) to prevent non-specific binding. Excess blocking buffer was removed by washing once. Culture media was serially diluted in blocking buffer, and 50 μl from each dilution was added to the coated and blocked wells. Wells receiving undiluted media served as a control. A set of uncoated wells also received the diluted cell-free media. Plates were then incubated for 2 hours at room temperature, and washed three times as described above. After removing unbound chimeric receptor by washing, bound chimeric protein was assayed using 100 μl of the HRP labeled anti-murine IgG antibody, substantially as described above. Color development was initiated by addition of 100 μl of the TMB peroxidase substrate, and the extent of the peroxidase reaction measured spectrophotometrically at 450 nm and 650 nm, as described above.
Synthetic peptides having the sequences […] (SEQ ID NO:81), and […] (SEQ ID NO:82) were synthesized in the cyclic (disulfide-bonded) form using standard procedures (Peninsula Laboratories, Belmont, Calif.). The 18-mer peptide sequences were derived from the B7 and B8 clones, and the peptides are referred to herein as “ERB1-7” (SEQ ID NO:81) and “ERB1-8” (SEQ ID NO:82), respectively. The structures of the two purified peptides, each being greater than 95% pure as judged by HPLC, were confirmed by mass spectrometry. […] Such synthetic peptides are EPO mimetics.
Synthetic peptides corresponding to the sequence of ERB1-7, but missing either one, two, three or four N-terminal amino acids were tested in the peptide inhibition ELISA protocol. The following peptides were synthesized and tested substantially as described in Example 8: 18-mer peptide ERB1-7, consisting of […] (SEQ ID NO:81);

[2] = molecular target: T2, chimeric Ig-EPOR protein (human; murine, UniProt P19235 25-250); assay: biopanning of the ERB1 evolved library with Ig-EPOR (FIG. 4)
T2 construct: extracellular domain; Secreted from COS-7 cells transfected with pcDNA3-IgG1-EPOR; major species about 59 kDa; also called IgG-EPOR; chimeric receptor; not shown: hinge region, CH2 and CH3 domains of the murine IgG1 heavy chain
T2 sequence (looked up): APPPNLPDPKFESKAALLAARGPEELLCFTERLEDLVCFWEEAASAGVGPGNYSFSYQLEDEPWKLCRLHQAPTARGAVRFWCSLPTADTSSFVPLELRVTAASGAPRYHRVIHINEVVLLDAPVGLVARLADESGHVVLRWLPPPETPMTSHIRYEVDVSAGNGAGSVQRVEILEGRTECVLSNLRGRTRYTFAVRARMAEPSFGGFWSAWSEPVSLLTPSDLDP
Experimental: The beads were washed three times in TBST (Tris buffered saline containing 0.1% (v/v) TWEEN® 20) and then suspended in 1 ml blocking medium (TBS SUPERBLOCK®). Phage in 100 μl aliquots containing about 1 ×10^10 plaque forming units (pfu) were added to the beads and the mixtures rotated gently for 2 hrs at room temperature. After washing the beads five times in TBST, phage were eluted with 300 μl of 50 mM glycine buffer (pH 2.2) for 10 min at room temperature. Eluted phage were immediately neutralized with 8 μl 2M Tris base that had not been pH-adjusted, mixed and stored at 4° C. Phage isolated by biopanning were amplified by mixing equal volumes of eluted phage and an overnight culture of E. coli strain JS5, diluting the mixture in 20 ml 2xYT containing tetracycline (12.0 μg/ml), and incubating overnight with shaking at 37° C. The resulting phage lysates were cleared of cell debris by centrifugation for 5 min in a microfuge, and 100 μl of the resulting supernatant lysate was used for a subsequent round of biopanning. All phage titering was carried out using JS5 bacteria plated on 2xYT top agar and agar plates.
Several random phage clones also were isolated from the evolved library, to represent non-binding clones.

[3] = molecular target: T2, chimeric Ig-EPOR protein; assay: phage ELISA, relative to ERB1
Experimental: (§1) To better characterize the phage isolates having binding specificity for the EPOR, we compared the relative affinities of the binding clones presented in FIG. 4, using a phage ELISA procedure. Phage stocks of the binding clones were titered in triplicate to accurately determine the concentration of pfu/ml for each lysate. Different isolates were then assayed by ELISA using normalized phage concentrations so that all clones were tested using equivalent numbers of phage.

[4] = molecular target: T2, chimeric Ig-EPOR protein; assay: peptide inhibition ELISA: Ig-EPOR binding to EPO-coated plates
Source text: Thus, the consensus 12-mer peptide sequence given by SEQ ID NO:12 likely was necessary but not sufficient to create synthetic peptides having high affinity for the EPOR.

[5] = molecular target: T2, chimeric Ig-EPOR protein; assay: phage ELISA with normalized phage concentrations
Experimental: as §1

Molecule	binding result [2]	relative affinity (Rel. Aff., ERB1 = 1.0) [3]	further results
CC(C)[C@@H]1NC(=O)[C@H](Cc2c[nH]c3ccccc23)NC(=O)CNC(=O)[C@H](CCCNC(=N)N)NC(=O)[C@H](CCCNC(=N)N)NC(=O)[C@@H](NC(=O)CNC(=O)[C@H](CCC(=O)O)NC(=O)[C@H](CCCNC(=N)N)NC(=O)[C@@H](N)CC(=O)O)CSSC[C@@H](C(=O)N[C@@H](CCCCN)C(=O)N[C@@H](C)C(=O)N[C@@H](Cc2c[nH]c3ccccc23)C(=O)N[C@@H](Cc2ccccc2)C(=O)N[C@@H](CC(N)=O)C(=O)O)NC(=O)[C@H](CCC(N)=O)NC(=O)CNC1=O [ERB1-7] (H-DREGCRRGWVGQCKAWFN-OH; disulfide 5-13; N-terminus and C-terminus assumed)			IC50 [1]: ~45 nM
CC(C)C[C@H](NC(=O)[C@H](Cc1c[nH]c2ccccc12)NC(=O)[C@H](Cc1ccc(O)cc1)NC(=O)[C@H](CC(N)=O)NC(=O)[C@@H]1CSSC[C@H](NC(=O)[C@H](C)NC(=O)[C@H](CCC(=O)O)NC(=O)[C@@H](NC(=O)[C@@H](N)CC(=O)O)C(C)C)C(=O)NCC(=O)NCC(=O)NCC(=O)N[C@@H](Cc2c[nH]c3ccccc23)C(=O)N[C@@H](C(C)C)C(=O)NCC(=O)N[C@@H](Cc2c[nH]cn2)C(=O)N1)C(=O)N[C@@H](CCCNC(=N)N)C(=O)O [ERB1-8] (H-DVEACGGGWVGHCNYWLR-OH; disulfide 5-13; N-terminus and C-terminus assumed)			IC50 [1]: ~45 nM
CRRGWVGQCKAWFN [7N-4]			EPOR binding activity [1]: abolished EPOR binding activity
GCRRGWVGQCKAWFN [7N-3]			EPOR binding activity [1]: abolished EPOR binding activity
SLEPCRGGWVGHCNEWQRDEYAINPKWPNAPIEDPNPL (not shown: M13 phage pIII coat protein) [phage clone B6]	binds		
DIAVCRGGCVGLCEEGLRDEYACNVKKPVPHSYKLNTP (not shown: M13 phage pIII coat protein) [phage clone N13]		< 0.1	
RLEDGDEGRVWHSSDLLSDEYASTPSYPLTPNYYEYPP (not shown: M13 phage pIII coat protein) [phage clone N1]		< 0.1	
DFEDCQGGWVGHCNDWLGDEYARHPRYGATQTLSVNRH (not shown: M13 phage pIII coat protein) [phage clone B9]	binds		
DLNVGCPGYVGHCADWLGDEYPVHPNPEVPQTLNLKPH (not shown: M13 phage pIII coat protein) [phage clone N3]		< 0.1	
YSDVCRRGWVGHCEDWLGDEYSSQPSYALPHSTSLNPR (not shown: M13 phage pIII coat protein) [phage clone B18]	binds		
DFEGSLREWDGDWPEWLRDEYARPSYPNPHKANQKPP (not shown: M13 phage pIII coat protein) [phage clone N10]		< 0.1	
DLEVCRGGWVGHCKDWIWDEYARNPRYPDPQRKEVKSP (not shown: M13 phage pIII coat protein) [phage clone B10]	binds		
EFVVWPRGWVGHCKGCRVDEYSGDPSNLEAQTHDMNFQ (not shown: M13 phage pIII coat protein) [phage clone N7]		< 0.1	
GKEVCRRGWVGHCQEWPMDEYTRNPSHPVPHNSRHKTP (not shown: M13 phage pIII coat protein) [phage clone B3]	binds		
REGCRRGWVGQCKAWFN (disulfide 4-12 (inferred), N-terminal truncation of ERB1-7) [17-mer peptide 7N-1]			IC50 [4]: 91 nM
DLEGCRLGWVGHCNVWGGDEYTKRTSHSVPPSHKSKLL (not shown: M13 phage pIII coat protein) [phage clone B19]	binds		
DVHECRPGWVGHCKDWLSDEYASNRRSPEPHRNYPIPP (not shown: M13 phage pIII coat protein) [phage clone B1]	binds		

Molecule	binding result [2]	relative affinity (Rel. Aff., ERB1 = 1.0) [3]	further results
LLQMCSPGWVGHCNDWPRDEYANNPPNPVVDRQALTPP (not shown: M13 phage pIII coat protein) [phage clone B17]	binds		
ELDMLRGGGVGQSKESLRDEYDHKTSTPVPPNQKLPPP (not shown: M13 phage pIII coat protein) [phage clone N4]		< 0.1	
EGEVCLPGWVGHCKYWLMDEYANIPRNPTPRSNELKPP (not shown: M13 phage pIII coat protein) [phage clone B13]	binds		
DVEACGGGWVGHCNYWLRDEYASKPIKQVPPGNHNQPS (not shown: M13 phage pIII coat protein) [phage clone B8]			fold affinity relative to the parent ERB1 clone [5]: ~20 fold
AKVVCRNGWVGHCSAWLTDEYESNPNTRIPNTFDMKTP (not shown: M13 phage pIII coat protein) [phage clone B21]	binds		
SVDVCNQGGVGRCNDGLGDEYASKPSYQEAPRYNPNLR (not shown: M13 phage pIII coat protein) [phage clone N9]		< 0.1	
GLNICRPGWVGHCNDSLRDEYATNPRTPGPLSYNLQPT (not shown: M13 phage pIII coat protein) [phage clone N8]		< 0.1	
DREGCRRGWVGQCKAWFNDEYAKPPKKPFRNSYSLGPA (not shown: M13 phage pIII coat protein) [phage clone B7]			fold affinity relative to the parent ERB1 clone [5]: ~20 fold
EWVYSRQSWGGQWKDGVRDEYTMTPGDPVANKYSLMTP (not shown: M13 phage pIII coat protein) [phage clone N6]		< 0.1	
GWAGCRSGGAGQCKEGAGDEYAENPSYPVPPRKHLNRL (not shown: M13 phage pIII coat protein) [phage clone N2]		< 0.1	
NSDVTRRGWADHWREWNWDEYASTPTHPASHSSYLNPP (not shown: M13 phage pIII coat protein) [phage clone N5]		< 0.1	
DLAGCRRGWVGHCSEWLRDEYTSNPRYPVAPSYRLQPP (not shown: M13 phage pIII coat protein) [phage clone B20]	binds		
QVDTCTRGWVGHCNAWMGDEYAKTPGLPMPQSDYLKPR (not shown: M13 phage pIII coat protein) [phage clone B15]	binds		
DVEVCRGGWVGHCNAWLRDEYNRQPKKPVQQQVVYSTR (not shown: M13 phage pIII coat protein) [phage clone B16]	binds		
ALDVGRWDGVGHCKGCLKDEYTTLDSKNNPQISQVSPT (not shown: M13 phage pIII coat protein) [phage clone N11]		< 0.1	
DVEVGRRACVGYCQEFLRDEYTATPSYPDKHSNYLNPP (not shown: M13 phage pIII coat protein) [phage clone N12]		< 0.1	
